# Publication doi:10.1101/2020.06.12.148387 (bioRxiv, 2020)
# B1: nanobody (Nb) used as crystallisation chaperone (VHH)
# VHH: QVQLVESGGGLMQAGGSLRLSCAVSGRTFSTAAMGWFRQAPGKEREFVAAIRWSGGSAYYADSVKGRFTISRDKAKNTVYLQMNSLKYEDTAVYYCAQTHYVSYLLSDYATWPYDYWGQGTQVTVSS
# B2: EY6A IgG (antibody, V domains shown)
# VH: EVQLVESGGGVVQPGRSLRLSCAASAFTFSSYDMHWVRQAPGKGLEWVAVISYDGSNKYYADSVKGRFTISRDNSKNTLYLQMNSLRAEDTAVYYCAKDGGKLWVYYFDYWGQGTLVTVSS
# VL: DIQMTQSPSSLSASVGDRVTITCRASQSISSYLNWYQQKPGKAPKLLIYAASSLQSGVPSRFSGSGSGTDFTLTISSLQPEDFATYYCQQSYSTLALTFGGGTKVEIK
# notes: also called antibody EY6A; EY6A mAb; copies: 2 + 2
# B3: EY6A Fab (digested from IgG with papain) (Fab, V domains shown)
# VH: B2 VH
# VL: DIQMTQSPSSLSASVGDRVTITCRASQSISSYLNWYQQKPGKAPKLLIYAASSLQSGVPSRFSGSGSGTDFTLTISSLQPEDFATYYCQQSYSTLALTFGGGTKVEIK
# notes: also called Fab-EY6A; source: digested from ExpiCHO-made IgG with papain (Pierce Fab Preparation Kit)
# Key:
# [1] = molecular target: deglycosylated SARS-CoV-2 RBD (SARS-CoV-2, UniProt P0DTC2); experiment: crystal structure; settings: both partners purified
# [2] = molecular target: T1, S1 subunit of SARS-CoV-1 Spike (SARS-CoV-1 (SARS-CoV), strain , UniProt P59594); experiment: ELISA
# T1 construct: source: bought: Sino Biological
# [3] = molecular target: biotinylated SARS-CoV-2 RBD (SARS-CoV-2, UniProt P0DTC2); experiment: cell-based ACE2 blocking assay (plate, streptavidin-HRP)
# [4] = molecular target: SARS-CoV-2 RBD-Fc (SARS-CoV-2, strain  …, UniProt P0DTC2); experiment: SPR; settings: both partners purified
binder,measurement,setting,value
B1,binding result,[1],binds
B2,binding result,[2],binds
same,IC50,[3],54 nM
B3,Kd,[4],2 nM
